We go through 167 variants from the Human Domainome abundance scans (Beltran et al. 2025).

Sequences and labels used below:
B1: Friend leukemia integration 1 transcription factor, residues 116 to 197; numbered along this chain, Q01543 (parent)
chain: NMTTNERRVIVPADPTLWTQEHVRQWLEWAIKEYSLMEIDTSFFQNMDGKELCKMNKEDFLRATTLYNTEVLLSHLSYLRES

± gives the uncertainty stated by the source.

The variants in this data set derive from B1. Nature of the data set: abundance fitness (aPCA) (normalised: wild type 0, dead -1); higher = more abundant; growth selection in yeast, the domain comes from the species named. The following applies: Homo sapiens.
In the case of T16C, the abundance fitness was -0.357 ± 0.45. The result for T16M reads -0.022 ± 0.12; that for V9W, 0 ± 0.091.

In the case of V9H, the abundance fitness was determined as 0.099 ± 0.34. The result for V9A reads 0.14 ± 0.075. With V9M, the abundance fitness was -0.156 ± 0.095. The result for R24A reads 0.106 ± 0.082; that for L52A, -0.602 ± 0.26; that for L52M, -0.277 ± 0.17. The result for L52I reads -0.608 ± 0.35; that for L52W, -0.943 ± 0.21. Consider Q25S, for which the abundance fitness is -0.246 ± 0.12.

For the variant Q25C, the abundance fitness was determined as 0.036 ± 0.17. Under M47F stands -0.293 ± 0.19; under M47A, -0.162 ± 0.068; under W18M, -0.616 ± 0.21. As to W18F, the abundance fitness was -0.719 ± 0.49. The result for W18S reads -0.981 ± 0.35. Under D14V stands -0.353 ± 0.1. The result for D14Q reads 0.155 ± 0.27. As for D14T, the abundance fitness was -0.388 ± 0.12. With Y67C, the abundance fitness was -0.058 ± 0.12. In the case of Y67P, the abundance fitness is -0.008 ± 0.11. As to V71Y, the abundance fitness was -0.239 ± 0.29. Take V71M: the abundance fitness was -0.065 ± 0.09. The result for V71S reads -0.147 ± 0.066; that for V71Q, -0.035 ± 0.07; that for V71E, -0.368 ± 0.18. The result for V23R reads -0.74 ± 0.12. Under V23G stands -0.931 ± 0.27; under V23I, -0.386 ± 0.14. On to V23K, for which the abundance fitness was -0.752 ± 0.29.

For P15Q, the abundance fitness was -0.543 ± 0.13.

In the case of P15E, the abundance fitness was -0.854 ± 0.13. For the variant L36N, the abundance fitness was -0.742 ± 0.28. Regarding L36Q, the abundance fitness was -0.603 ± 0.18.

As for L36E, the abundance fitness is -0.605 ± 0.14. Under E28R stands -0.018 ± 0.063; under E28V, -0.035 ± 0.076; under E28N, -0.377 ± 0.49.

Consider E28G, for which the abundance fitness is -0.189 ± 0.13. Regarding E28S, the abundance fitness is -0.123 ± 0.12. With L17Q, the abundance fitness is 0.037 ± 0.088. On to L17I, for which the abundance fitness amounted to 0.024 ± 0.21.

As for T19P, the abundance fitness is -1.02 ± 0.48. With T19L, the abundance fitness was -0.243 ± 0.063.

Take T19G: the abundance fitness was -0.194 ± 0.097. T19H: the abundance fitness was determined as 0.12 ± 0.12. On to T19K, for which the abundance fitness is -0.12 ± 0.13.

Take D40Y: the abundance fitness is -0.686 ± 0.26.

On to H22D, for which the abundance fitness was 0.116 ± 0.13. Under H22S stands -0.246 ± 0.098; under H22P, -1.02 ± 0.34; under E6C, -0.23 ± 0.39.

Regarding S35A, the abundance fitness was -0.076 ± 0.063. S35G: the abundance fitness came out at 0.073 ± 0.07. Turning to S35P, the abundance fitness was -0.228 ± 0.079.

With S35T, the abundance fitness was -0.021 ± 0.068. T69S: the abundance fitness is -0.028 ± 0.06. Under T69E stands -0.673 ± 0.19; under K57G, -0.433 ± 0.088. In the case of K57C, the abundance fitness is -0.212 ± 0.31. Under S77T stands 0.032 ± 0.33; under S77P, -0.216 ± 0.23. Under I10G stands 0.163 ± 0.082; under I10W, -0.197 ± 0.12; under I10R, 0.098 ± 0.072. On to I10A, for which the abundance fitness amounted to 0.15 ± 0.11. The result for N56Q reads -0.043 ± 0.076; that for N56C, -0.157 ± 0.17; that for N56M, -0.002 ± 0.099. The result for T3K reads 0.185 ± 0.18.

In the case of S42D, the abundance fitness stood at 0.084 ± 0.18. Under S42T stands 0.023 ± 0.083; under K50I, -0.113 ± 0.18. As to K50F, the abundance fitness was -0.064 ± 0.053.

Turning to K50T, the abundance fitness worked out at 0.212 ± 0.079.

As for T41Y, the abundance fitness came out at 0.051 ± 0.12.

On to F43Y, for which the abundance fitness was -0.013 ± 0.16.

As for F43A, the abundance fitness was -0.063 ± 0.077. Under F60Y stands 0.152 ± 0.16; under F60V, -0.433 ± 0.089; under F60L, -0.116 ± 0.06. Under V11Q stands -0.024 ± 0.093. The result for V11H reads -0.032 ± 0.14. For the variant V11W, the abundance fitness is 0.198 ± 0.064. Under V11T stands 0.077 ± 0.077; under K54W, -0.396 ± 0.075. Take K54G: the abundance fitness is -0.015 ± 0.075. Consider K54L, for which the abundance fitness is -0.017 ± 0.049.

For the variant N5F, the abundance fitness was -0.089 ± 0.21.

For N5P, the abundance fitness was -0.017 ± 0.078.

Take N5T: the abundance fitness is 0.056 ± 0.08. As to N5H, the abundance fitness was -0.06 ± 0.23.

In the case of N5D, the abundance fitness was -0.011 ± 0.13. Under E51L stands -0.135 ± 0.051; under E51H, 0.068 ± 0.12. Under D48K stands -0.227 ± 0.12; under I39L, -0.017 ± 0.06. Under I39M stands 0.027 ± 0.07. Take F44W: the abundance fitness was -0.13 ± 0.044. Under A63K stands -0.089 ± 0.1; under A63P, -0.954 ± 0.15.

Turning to A63F, the abundance fitness was -0.123 ± 0.16. The result for M2Q reads 0.011 ± 0.16; that for M2T, -0.231 ± 0.13; that for M2I, -0.081 ± 0.12. The result for E33L reads -0.981 ± 0.13; that for E33V, -0.435 ± 0.12.

As to E33I, the abundance fitness is -0.437 ± 0.4.

As for M37G, the abundance fitness was -0.02 ± 0.096.

M37D: the abundance fitness was 0.021 ± 0.22. For the variant M37F, the abundance fitness turned out to be 0.187 ± 0.1. Consider M37C, for which the abundance fitness was -0.317 ± 0.4. Under Q45Y stands 0 ± 0.15; under C53Q, -0.099 ± 0.092; under C53G, -0.142 ± 0.077.

C53W: the abundance fitness is -0.463 ± 0.14. On to E58L, for which the abundance fitness is -0.117 ± 0.054. The result for E58A reads 0.119 ± 0.069; that for E58N, 0.048 ± 0.32. Under E58C stands -0.11 ± 0.12; under E58P, 0.01 ± 0.082. Under L27A stands -0.229 ± 0.11; under R7A, -0.243 ± 0.1; under R7H, -0.284 ± 0.24. R7W: the abundance fitness is -0.179 ± 0.11. A30G: the abundance fitness was -0.253 ± 0.086. On to A30Q, for which the abundance fitness is 0.18 ± 0.12. The result for A30M reads -0.057 ± 0.07; that for A30K, -0.161 ± 0.11. The result for K32H reads -0.351 ± 0.13; that for K32Q, -0.08 ± 0.073. Under T4M stands -0.075 ± 0.18; under T4A, 0.069 ± 0.089; under T4I, 0.017 ± 0.15.

In the case of T4V, the abundance fitness stood at 0.003 ± 0.09. Under L72Q stands -0.949 ± 0.2.

For the variant L72W, the abundance fitness was -1.1 ± 0.27.

On to L72R, for which the abundance fitness is -1.12 ± 0.29. The result for D59S reads -0.126 ± 0.085. In the case of W29E, the abundance fitness amounted to 0.212 ± 0.08. Turning to N68C, the abundance fitness was -0.292 ± 0.11. In the case of N68F, the abundance fitness was -1.02 ± 0.42. Consider L66T, for which the abundance fitness is -0.089 ± 0.14.

Turning to G49T, the abundance fitness was -0.919 ± 0.27. Regarding G49M, the abundance fitness was -0.965 ± 0.38.

On to G49R, for which the abundance fitness was -0.889 ± 0.13. Under G49W stands -0.777 ± 0.25; under G49K, -0.994 ± 0.42; under R62T, -0.117 ± 0.11. The result for R62G reads -0.016 ± 0.079; that for Y78V, 0.124 ± 0.22. As for M55Y, the abundance fitness was -0.273 ± 0.21. On to M55P, for which the abundance fitness was -0.784 ± 0.14. With E38K, the abundance fitness was -0.087 ± 0.17. Take E38R: the abundance fitness was -0.203 ± 0.061. The result for Y34S reads -0.108 ± 0.068; that for Y34K, -0.032 ± 0.11. The result for Y34E reads -0.181 ± 0.093; that for Y34V, -0.978 ± 0.14; that for E70P, -0.859 ± 0.28. Under E70R stands -0.335 ± 0.066; under E70I, -0.726 ± 0.46; under E70N, -0.124 ± 0.28. On to T64C, for which the abundance fitness is -0.505 ± 0.27. The result for Q20G reads -0.057 ± 0.12.
